System: T1, O=c1[nH]c(=O)c2[nH]c(=O)[nH]c2[nH]1
T1 construct: full-length human OAT10 wild-type, EGFP-fused (pEGFP-N1)
Experiment: cells, lysate or membranes
Type: cell-based, Homo sapiens
Conditions: Cl^-

Chain of OAT10/SLC22A13 (Homo sapiens) (chain, as listed by the source): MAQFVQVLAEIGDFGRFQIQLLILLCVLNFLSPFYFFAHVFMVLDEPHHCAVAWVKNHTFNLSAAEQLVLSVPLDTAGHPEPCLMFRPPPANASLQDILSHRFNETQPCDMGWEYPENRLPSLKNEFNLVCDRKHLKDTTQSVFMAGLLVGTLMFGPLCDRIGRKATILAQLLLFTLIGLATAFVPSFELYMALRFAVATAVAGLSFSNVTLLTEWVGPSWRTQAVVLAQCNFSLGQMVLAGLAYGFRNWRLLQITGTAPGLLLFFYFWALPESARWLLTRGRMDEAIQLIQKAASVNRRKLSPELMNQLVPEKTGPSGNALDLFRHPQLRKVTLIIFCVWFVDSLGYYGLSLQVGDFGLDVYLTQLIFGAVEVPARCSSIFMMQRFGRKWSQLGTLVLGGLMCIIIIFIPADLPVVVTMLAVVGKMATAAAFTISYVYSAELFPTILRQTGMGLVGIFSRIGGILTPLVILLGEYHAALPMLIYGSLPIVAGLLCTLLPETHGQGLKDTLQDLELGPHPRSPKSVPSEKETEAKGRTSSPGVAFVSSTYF

OAT10/SLC22A13 (Homo sapiens)
Km: 558 µM

Source: publication PMC9019507, “OAT10/SLC22A13 Acts as a Renal Urate Re-Absorber: Clinico-Genetic and Functional Analyses With Pharmacological Impacts” (Frontiers in Pharmacology, 2022)
